Data taken from patent US7906477.
Square brackets hold non-standard residues; d marks the D form. Ends that are not written are not given here. Tyr(3-NO2) = N[C@@H](Cc1ccc(O)c([N+](=O)[O-])c1)C(=O)O; Abz = aminobenzoic acid; Dap = NC[C@H](N)C(=O)O

Target: human glandular kallikrein 2 (hK2), enzymatically active (human), P20151
Assay: cell-based or functional assay

time required to generate clearly detectable fluorescence on the beads: 4 to 5 h
B1: Y′GKAFRL-Dap-F-K′-PEGA (SEQ ID NO:53) (peptide)
peptide: [Tyr(3-NO2)]GKAFRL[Dap]FK(Abz)-{PEGA resin}
